Assay results published in the supplement of paper PMC10065799, “High-throughput profiling of sequence recognition by tyrosine kinases and SH2 domains using bacterial peptide display” (eLife, 2023).

How the values were obtained:
Fer (mouse) = assay: phosphorylation enrichment, bacterial display (enrichment ratio); higher = better substrate or ligand; peptides without Tyr show the background
Hck = Hck (UniProt P08631); assay: as above
Jak2 = Jak2 (UniProt O60674); assay: as above
Fyn = Fyn (UniProt P06241); assay: as above
c-Abl (mouse) = assay: as above
EPHB1 = EPHB1 (UniProt P54762); assay: as above
Fes = Fes (UniProt P07332); assay: as above
FGFR3 = FGFR3 (UniProt P22607); assay: as above
EPHB2 = EPHB2 (UniProt P29323); assay: as above
c-Src = assay: as above
AncSZ = assay: as above
MERTK = MERTK (UniProt Q12866); assay: as above
FGFR1 = FGFR1 (UniProt P11362); assay: as above
Grb2 SH2 = Grb2 SH2 (UniProt P62993); assay: SH2 binding enrichment of the phosphorylated peptide, bacterial display (enrichment ratio); higher = better substrate or ligand; peptides without Tyr show the background
c-Src SH2 = assay: as above
SHP2-C SH2 = assay: as above
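Wherever SH2 binding enrichment of the phosphorylated peptide, bacterial display is given: peptide library displayed on the E. coli surface as eCPX fusions, selected cells deep-sequenced, score is each peptide's frequency after selection divided by its frequency in the input.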
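Wherever phosphorylation enrichment, bacterial display is given: 11-residue human phosphosite peptides and single-mutation variants displayed on the E. coli surface, counted by deep sequencing, each peptide's frequency after selection divided by its frequency in the unselected input library; frequency after pTyr selection over input frequency; kinase dosed for 20-30% of maximal phosphorylation in three min.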

FGFR1, sequence (P11362 whole entry, looked up): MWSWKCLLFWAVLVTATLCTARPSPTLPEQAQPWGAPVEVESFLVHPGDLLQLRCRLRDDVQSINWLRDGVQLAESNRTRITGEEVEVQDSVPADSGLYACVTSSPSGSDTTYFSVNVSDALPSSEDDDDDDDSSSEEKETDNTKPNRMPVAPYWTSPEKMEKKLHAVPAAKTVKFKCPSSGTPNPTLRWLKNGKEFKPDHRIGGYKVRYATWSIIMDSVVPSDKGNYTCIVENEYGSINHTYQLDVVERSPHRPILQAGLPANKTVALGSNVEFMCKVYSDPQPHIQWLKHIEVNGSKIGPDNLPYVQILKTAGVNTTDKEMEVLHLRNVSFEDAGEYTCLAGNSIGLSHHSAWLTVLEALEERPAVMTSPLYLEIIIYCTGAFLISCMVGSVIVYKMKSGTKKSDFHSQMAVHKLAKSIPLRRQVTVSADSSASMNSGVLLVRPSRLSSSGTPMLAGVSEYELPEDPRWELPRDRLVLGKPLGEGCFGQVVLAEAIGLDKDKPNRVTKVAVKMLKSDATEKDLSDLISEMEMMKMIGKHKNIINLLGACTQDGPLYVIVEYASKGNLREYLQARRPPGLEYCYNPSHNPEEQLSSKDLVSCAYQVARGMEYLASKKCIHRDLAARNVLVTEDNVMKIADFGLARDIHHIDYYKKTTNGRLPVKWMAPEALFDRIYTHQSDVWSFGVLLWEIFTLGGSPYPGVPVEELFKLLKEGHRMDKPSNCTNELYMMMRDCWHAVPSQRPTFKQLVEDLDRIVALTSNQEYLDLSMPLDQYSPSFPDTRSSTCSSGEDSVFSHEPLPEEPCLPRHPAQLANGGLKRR
EPHB2, sequence (P29323 whole entry, looked up): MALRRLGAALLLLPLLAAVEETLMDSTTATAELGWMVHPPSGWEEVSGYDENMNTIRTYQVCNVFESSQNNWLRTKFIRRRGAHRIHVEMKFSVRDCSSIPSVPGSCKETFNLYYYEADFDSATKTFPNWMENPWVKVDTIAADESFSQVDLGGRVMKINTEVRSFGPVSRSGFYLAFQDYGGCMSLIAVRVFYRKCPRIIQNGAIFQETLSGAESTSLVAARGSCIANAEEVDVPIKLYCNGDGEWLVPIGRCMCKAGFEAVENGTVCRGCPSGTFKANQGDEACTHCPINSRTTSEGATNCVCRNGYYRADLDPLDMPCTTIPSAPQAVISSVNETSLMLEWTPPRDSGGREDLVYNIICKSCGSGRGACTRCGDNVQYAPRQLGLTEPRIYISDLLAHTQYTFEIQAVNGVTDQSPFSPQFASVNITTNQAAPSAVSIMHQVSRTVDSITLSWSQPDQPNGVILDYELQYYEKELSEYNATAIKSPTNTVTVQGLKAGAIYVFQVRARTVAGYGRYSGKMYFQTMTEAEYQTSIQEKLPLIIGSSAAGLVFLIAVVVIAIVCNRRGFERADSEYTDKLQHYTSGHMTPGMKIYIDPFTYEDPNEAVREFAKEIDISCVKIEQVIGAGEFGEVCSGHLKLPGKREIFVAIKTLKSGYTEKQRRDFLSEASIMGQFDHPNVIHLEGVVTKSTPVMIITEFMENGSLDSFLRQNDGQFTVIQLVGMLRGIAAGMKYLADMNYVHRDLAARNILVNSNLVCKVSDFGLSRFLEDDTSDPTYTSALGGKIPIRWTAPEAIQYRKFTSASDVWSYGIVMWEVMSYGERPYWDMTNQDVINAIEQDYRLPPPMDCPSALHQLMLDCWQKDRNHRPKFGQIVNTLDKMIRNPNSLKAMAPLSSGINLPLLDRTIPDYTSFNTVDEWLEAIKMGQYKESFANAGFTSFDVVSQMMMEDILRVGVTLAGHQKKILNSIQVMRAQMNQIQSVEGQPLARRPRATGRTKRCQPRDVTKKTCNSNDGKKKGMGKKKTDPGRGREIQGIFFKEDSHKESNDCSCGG
Jak2, sequence (O60674 whole entry, looked up): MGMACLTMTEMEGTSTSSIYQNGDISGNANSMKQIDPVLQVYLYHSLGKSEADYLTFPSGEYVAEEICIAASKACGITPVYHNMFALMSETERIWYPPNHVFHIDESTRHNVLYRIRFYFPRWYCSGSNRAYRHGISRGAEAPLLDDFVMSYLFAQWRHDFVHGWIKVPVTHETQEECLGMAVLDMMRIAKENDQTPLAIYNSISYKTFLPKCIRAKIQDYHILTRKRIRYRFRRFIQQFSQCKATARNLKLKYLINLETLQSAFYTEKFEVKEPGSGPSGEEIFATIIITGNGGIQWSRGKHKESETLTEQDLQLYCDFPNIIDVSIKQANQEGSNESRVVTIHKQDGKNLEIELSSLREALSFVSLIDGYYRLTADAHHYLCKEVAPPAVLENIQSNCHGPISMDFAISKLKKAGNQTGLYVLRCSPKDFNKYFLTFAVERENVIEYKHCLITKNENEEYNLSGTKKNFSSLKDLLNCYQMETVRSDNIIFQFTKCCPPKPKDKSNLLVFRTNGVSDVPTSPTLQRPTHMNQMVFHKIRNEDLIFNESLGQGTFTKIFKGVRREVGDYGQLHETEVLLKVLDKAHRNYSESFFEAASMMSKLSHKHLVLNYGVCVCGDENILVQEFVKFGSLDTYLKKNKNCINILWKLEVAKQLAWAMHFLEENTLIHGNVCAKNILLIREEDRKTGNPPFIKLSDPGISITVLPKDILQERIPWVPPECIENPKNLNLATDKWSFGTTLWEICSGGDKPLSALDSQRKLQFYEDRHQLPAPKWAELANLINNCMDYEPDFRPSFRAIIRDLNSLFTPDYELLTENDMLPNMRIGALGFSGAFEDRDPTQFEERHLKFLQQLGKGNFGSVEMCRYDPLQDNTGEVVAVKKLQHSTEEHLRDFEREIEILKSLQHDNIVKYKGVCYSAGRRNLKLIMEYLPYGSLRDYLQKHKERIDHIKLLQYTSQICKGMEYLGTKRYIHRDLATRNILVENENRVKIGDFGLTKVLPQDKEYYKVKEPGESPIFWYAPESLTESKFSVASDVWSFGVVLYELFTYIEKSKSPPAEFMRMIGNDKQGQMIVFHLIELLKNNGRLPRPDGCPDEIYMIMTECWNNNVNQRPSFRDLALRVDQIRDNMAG
Fyn, sequence (P06241 whole entry, looked up): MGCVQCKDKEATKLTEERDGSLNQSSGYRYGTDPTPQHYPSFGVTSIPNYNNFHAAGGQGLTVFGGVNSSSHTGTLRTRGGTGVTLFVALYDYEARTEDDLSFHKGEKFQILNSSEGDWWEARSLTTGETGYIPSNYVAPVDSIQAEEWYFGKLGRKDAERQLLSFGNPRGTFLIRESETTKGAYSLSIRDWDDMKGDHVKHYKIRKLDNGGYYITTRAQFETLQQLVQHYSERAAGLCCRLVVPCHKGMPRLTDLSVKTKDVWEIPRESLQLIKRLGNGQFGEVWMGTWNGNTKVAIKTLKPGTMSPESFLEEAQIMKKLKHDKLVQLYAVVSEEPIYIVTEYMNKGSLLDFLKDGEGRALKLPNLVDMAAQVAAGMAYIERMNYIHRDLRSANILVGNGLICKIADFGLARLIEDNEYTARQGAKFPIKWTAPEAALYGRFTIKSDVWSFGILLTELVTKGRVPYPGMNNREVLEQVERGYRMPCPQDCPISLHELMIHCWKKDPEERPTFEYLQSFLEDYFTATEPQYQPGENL
Fes, sequence (P07332 whole entry, looked up): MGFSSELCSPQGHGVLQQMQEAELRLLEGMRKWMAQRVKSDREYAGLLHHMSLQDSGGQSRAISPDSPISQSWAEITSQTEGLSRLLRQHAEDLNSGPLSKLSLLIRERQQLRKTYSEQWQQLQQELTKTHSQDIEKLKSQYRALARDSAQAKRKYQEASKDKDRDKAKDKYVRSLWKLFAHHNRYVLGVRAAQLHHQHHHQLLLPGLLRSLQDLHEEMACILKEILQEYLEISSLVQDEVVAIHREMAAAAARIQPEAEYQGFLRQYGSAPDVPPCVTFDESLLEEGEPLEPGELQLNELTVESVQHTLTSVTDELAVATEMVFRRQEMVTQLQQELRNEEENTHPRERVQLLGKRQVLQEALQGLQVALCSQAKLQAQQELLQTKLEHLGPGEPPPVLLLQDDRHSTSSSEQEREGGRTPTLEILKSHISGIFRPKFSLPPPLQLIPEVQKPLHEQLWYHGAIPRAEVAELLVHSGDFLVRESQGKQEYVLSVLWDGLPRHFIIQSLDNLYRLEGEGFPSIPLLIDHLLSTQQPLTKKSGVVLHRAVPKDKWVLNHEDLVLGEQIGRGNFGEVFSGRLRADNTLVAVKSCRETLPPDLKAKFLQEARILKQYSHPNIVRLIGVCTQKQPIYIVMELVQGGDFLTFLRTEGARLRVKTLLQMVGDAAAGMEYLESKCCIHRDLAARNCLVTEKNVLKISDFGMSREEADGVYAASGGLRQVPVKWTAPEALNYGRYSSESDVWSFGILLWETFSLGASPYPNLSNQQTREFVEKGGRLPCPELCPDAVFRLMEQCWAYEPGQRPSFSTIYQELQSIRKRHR
Hck, sequence (P08631 whole entry, looked up): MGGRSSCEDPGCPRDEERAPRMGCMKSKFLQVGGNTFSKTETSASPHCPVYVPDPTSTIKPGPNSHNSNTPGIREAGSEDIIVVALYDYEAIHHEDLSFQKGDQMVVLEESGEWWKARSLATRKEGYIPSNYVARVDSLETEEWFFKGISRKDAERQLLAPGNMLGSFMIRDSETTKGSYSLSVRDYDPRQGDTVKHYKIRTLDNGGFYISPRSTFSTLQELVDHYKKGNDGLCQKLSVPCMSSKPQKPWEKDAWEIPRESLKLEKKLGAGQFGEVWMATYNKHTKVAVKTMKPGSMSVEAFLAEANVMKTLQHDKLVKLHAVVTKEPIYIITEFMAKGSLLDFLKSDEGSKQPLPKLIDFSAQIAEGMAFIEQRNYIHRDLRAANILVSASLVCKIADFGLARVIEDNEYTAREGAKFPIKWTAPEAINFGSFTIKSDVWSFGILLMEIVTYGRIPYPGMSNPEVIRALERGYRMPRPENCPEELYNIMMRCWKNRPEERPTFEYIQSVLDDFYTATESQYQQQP

Sequence	SH2 binding enrichment (Grb2 SH2)	SH2 binding enrichment (c-Src SH2)	SH2 binding enrichment (SHP2-C SH2)	phosphorylation enrichment (Fer (mouse))	phosphorylation enrichment (Hck)	phosphorylation enrichment (Jak2)	phosphorylation enrichment (Fyn)	phosphorylation enrichment (c-Abl (mouse))	phosphorylation enrichment (EPHB1)	phosphorylation enrichment (Fes)	phosphorylation enrichment (FGFR3)	phosphorylation enrichment (EPHB2)	phosphorylation enrichment (c-Src)	phosphorylation enrichment (AncSZ)	phosphorylation enrichment (MERTK)	phosphorylation enrichment (FGFR1)
GKSHIYFWTLD [EML2_Y230_E235D]	0.703	0.387	0.712	0.508	0.521	1.11	0.514	0.847	0.622	1.21	1.1	0.523	0.572	1.17	0.778	1.07
LTSKPYAFTAQ [NDUFS1_Y236_R241Q]	0.89	0.692	0.906	0.524	0.363	0.625	0.489	0.521	0.469	0.696	0.371	0.471	0.345	0.542	0.411	0.445
PIDLYYLMDLS [ITGB2_Y131]	0.922	0.67	0.911	9.5	7.58	8.57	8.8	1.09	13.5	4.2	18.6	12.5	6.67	6.05	13.3	17.4
GLAELYEFKKK [CKAP5_Y1854_YF]	2.2	0.533	0.864	0.43	0.559	0.619	0.554	0.451	0.307	0.705	0.48	0.348	0.665	0.534	0.381	0.487
ISDDKYGRIRL [ARCN1_Y310]	0.806	0.434	0.639	0.312	0.454	0.419	0.434	0.433	0.357	0.501	0.357	1.04	0.56	0.484	0.325	0.407
FFVVEYRNQKP [MUC17_Y4332_D4334N_YF]	1.46	0.865	1.38	0.82	0.687	1.55	0.623	1.52	0.795	1.65	0.98	0.841	0.608	1.32	0.413	0.581
ITGNGYYFRVF [MYBPC3_Y1135_I1131T]	0.665	0.475	0.799	0.488	0.385	0.936	0.384	0.701	0.561	1.08	0.72	0.589	0.301	1.04	0.294	0.41
KLFRVYCDMNT [FGB_Y269_P265L_YF]	0.75	0.918	0.65	0.523	0.471	1.17	0.463	0.838	0.777	1.33	0.701	0.619	0.463	1.11	0.432	0.548
SWSTSYSGFRC [NKAPL_Y91_Y96C_YF]	0.87	0.43	0.57	0.531	0.642	0.877	0.643	0.761	0.616	1.1	0.763	0.597	0.972	0.985	0.424	0.528
MPIPMYDASQA [CARMIL1_Y637]	0.887	0.537	0.75	0.565	0.552	0.717	0.643	0.824	0.867	0.73	0.629	1.01	0.46	0.751	0.566	0.595
RGERPYGGGGG [FUS_Y526_R522G]	1.24	0.661	0.673	0.337	0.444	0.65	0.474	0.397	0.185	0.643	0.377	0.418	0.415	0.487	0.48	0.419
STTSDYQWDVS [MTDH_Y364]	0.921	0.449	0.612	0.476	0.508	1.05	0.54	0.782	0.741	1.22	0.865	0.615	0.407	1.23	0.387	0.659
SRDPFYEMLAA [CYTH1_Y382]	0.957	2.44	0.748	12.4	4.88	0.729	2.55	0.681	3.5	1.26	3.2	1.71	2.96	1.21	7.89	5.1
FSEVRYMKEPF [HIPK4_Y170_V171M_YF]	0.863	0.547	0.646	0.36	0.438	0.741	0.379	0.66	0.473	0.821	0.48	0.459	0.388	0.677	0.32	0.451
HNMPIYEGYAL [ACTA1_Y168_V165M]	0.71	2.93	0.893	17.4	13.5	0.831	13.1	11.3	19.7	2.64	0.654	25.5	10.4	1.3	11	0.465
QTSTDYDIRFF [CSNK2A1_Y131_L128S_YF]	1.15	0.477	0.864	0.809	0.968	1.61	1.43	1.18	1.27	1.81	1.41	1.22	0.892	2.12	0.688	0.667
IRTIDYRYTVC [IDS_Y497_W502C]	0.884	2.77	0.948	0.572	0.561	0.965	0.51	0.65	0.653	1.02	0.754	0.52	0.461	0.965	0.478	0.555
REENGYNTFAS [FGF10_Y161_I156R_YF]	0.728	1.14	0.637	0.558	0.4	0.91	0.84	0.606	0.617	1	0.862	0.709	0.827	0.973	0.69	0.728
GMEIVYVFVKK [DNAI2_Y5_YF]	0.941	0.556	0.787	0.58	0.673	1.59	0.554	1.22	0.709	1.44	0.862	0.654	0.627	1.4	0.481	0.587
YAKSVYWDNTL [NUP107_Y296_E298D]	0.858	0.587	0.9	0.871	0.678	0.69	0.599	0.557	0.621	0.839	0.576	0.515	0.736	0.848	0.435	0.515
AFEQQYSPIPR [NOX1_Y373]	0.772	0.508	0.724	0.451	4.92	0.583	0.624	0.701	0.404	0.707	0.769	0.512	0.989	0.767	1.25	1.07
QEITTYRRLLE [KRT14_Y415_A413T]	0.915	0.493	0.598	0.505	0.542	1.07	0.708	0.815	0.619	1.11	0.78	0.548	0.649	1.03	0.416	0.657

Now from value to sequence, other results behind:

SH2 binding enrichment (Grb2 SH2)	SH2 binding enrichment (c-Src SH2)	SH2 binding enrichment (SHP2-C SH2)	Sequence	phosphorylation enrichment (Fer (mouse))	phosphorylation enrichment (Hck)	phosphorylation enrichment (Jak2)	phosphorylation enrichment (Fyn)	phosphorylation enrichment (c-Abl (mouse))	phosphorylation enrichment (EPHB1)	phosphorylation enrichment (Fes)	phosphorylation enrichment (FGFR3)	phosphorylation enrichment (EPHB2)	phosphorylation enrichment (c-Src)	phosphorylation enrichment (AncSZ)	phosphorylation enrichment (MERTK)	phosphorylation enrichment (FGFR1)
0.69	1.83	0.728	GGDGSYVSVPS [TNNI3K_Y425]	0.415	0.412	0.495	0.443	0.487	0.382	0.565	0.592	0.431	0.347	0.564	0.338	0.419
0.767	0.596	0.539	PLDGEYFTLRI [TP53_Y327_Q331R]	0.971	1.76	2.88	2.55	1.93	1.04	2.19	5	1.04	3.13	2.77	0.45	6.1
1.27	0.482	0.594	SENPKYPEVGD [TMEM43_Y233]	0.424	0.536	0.891	0.616	0.822	0.459	1.2	0.734	0.561	0.584	1.01	0.522	0.6
0.654	0.71	0.613	DAMQTYNGNDE [TSPAN7_Y131]	0.531	0.494	1.03	0.55	0.653	0.637	1.11	0.837	0.576	0.685	1.01	0.585	0.508
0.679	0.456	0.665	MRAIIYNSSTA [PLEKHA7_Y243_L241I]	0.528	0.501	0.765	0.509	1.04	0.473	0.838	0.623	0.609	0.447	0.812	0.47	0.554
0.845	0.511	0.724	AHLTEYLSTHY [UQCRC1_Y219_D215H]	0.371	0.517	0.647	0.402	0.475	0.462	0.639	0.585	0.396	0.453	0.716	0.464	0.475
0.983	8.99	1.48	CTTIHYDYMCN [TP53_Y234_N235D]	1.17	0.635	1.03	0.657	0.708	0.644	0.994	0.631	0.723	0.675	1.31	0.591	0.687
0.899	0.453	0.631	ATCKAYGQALA [TKT_Y321_R318C]	0.484	0.431	0.645	0.424	0.568	0.523	0.73	0.573	0.446	0.493	0.753	0.419	0.445
0.806	0.508	0.636	AEYGLYGAMVR [VSX2_Y222]	2.03	6.91	0.675	7.64	0.908	0.824	0.786	0.604	2.5	5.06	0.99	1.97	0.456
5.48	1.11	0.585	YQNGMYGLHQD [SGSH_Y89_H84Y]	0.55	1	0.712	0.751	0.748	0.487	0.808	0.631	0.687	0.957	0.874	0.566	0.605
0.445	0.91	0.747	RMQLPYDSTWE [PDGFRB_Y589_P584R]	0.434	0.764	1.17	0.851	0.913	0.76	1.33	0.963	0.704	0.996	1.23	0.447	0.779
